Test: yeast display, Sf9 membrane polyspecificity reagent, FACS + sequencing; frameworks hold sequencing errors
Procedure, shortened: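 Using colony PCR, genes from sorted yeast display clones were amplified, then sequenced on MiSeq at 2 × 250 and filtered by CDR length. The clones had been stained with 10% biotinylated, detergent-solubilized Sf9 membrane reagent for 1 hour at 4 °C and sorted by FACS into low and high (top ~1%) gates on anti-HA and streptavidin fluorescence. Polyreactivity labels come from the gate of origin.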

Row | Sequence | polyreactivity (PSR sort gate)
1 | QVQLVESGGGLVQAGGSLRLSCAASGSIFRFNAMGWYRQAPGKERELVAAISASGGSTYYADSVKGRFTISRDNAKNTVYLQMNSLKPEDTAVYYCAARRTAGAYYGYNYWGQGTQVTVSS | high polyreactivity
2 | QVQLVESGGGLVQAGGSLRLSCAASGSIFRFYAMGWYRQAPGKEGELVAAITSGGSTNYADSVKGRFTISRDNAKNTVYLQMNSLKPEDTAVSYCAAVVVYFFIYDYWGQGTQVTVSS | low polyreactivity
3 | QVQLVESGGGLVQAGGSLRLSCAASGSIFRFYAMGWYRQAPGKERELVAAITSGGSTNYADSVKGRFTISRDNAKNTVYLQMNSLKPEDTAVYYCAAELVYFFIYDYWGKGTQVTVSS | low polyreactivity
4 | QVQLVESGGGLVQAGGSLRLSCAASGSIFRFYAMGWYRQAPGKERELVAGISRRGGTTYYADSVKGRFTISRDNAKNTVYLQMNSLKPEDTAVYYCAKRSFGYKSRPAFNYWGQGTQVTVSS | high polyreactivity
5 | QVQLVESGGGLVQAGGSLRLSCAASGSIFRGNAMGCYRQAPWKARELVAGINRAGSTKYADSVKGRFTISRDNAKNTVYVQMISLKQEDTEVYYCAAVRYERGLWSDYWGQGTQVTVSS | high polyreactivity
6 | QVQLVESGGGLVQAGGSLRLSCAASGSIFRGNAMGWYRQAPGKERELVASISYSGGSTYYADSVKGRFTISRDTAKNTVYLQMNSLKPEDTAVYYCAADESVAYPYSGYQYYRHIYDYWGQGTQVTVSS | low polyreactivity
7 | QVQLVESGGGLVQAGGSLRLSCAASGSIFRGYAMGWYRPAPGKERELVAAISWSAGSTYYADSVKGRFTISRDNAKNTVYLQMNSLKPEDTAVYYCAARSPRRKGMDYWGQGTQVTVSS | high polyreactivity
8 | QVQLVESGGGLVQAGGSLRLSCAASGSIFRGYAMGWYRQAPGKERELVAAITSSGARTFYADSVKGRFTISRDNAKNTVYFLMKSLRPEDTAVYYCDAVSANQDFDSWGQGTQVSVSS | high polyreactivity
9 | QVQLVESGGGLVQAGGSLRLSCAASGSIFRGYAMGWYRQAPGKERELVAVITSGGSTDYADSVKGRFTISRDNAKNTVYLQMNSLKPEDTAVYYCAALPGGYYDRGEYDYWGQGTQVTVSS | low polyreactivity
10 | QVQLVESGGGLVQAGGSLRLSCAASGSIFRGYTMGWYRQAPGKERELVAAISRSGGSTYYADSVKGRFTISRDNAKNTVYLQMNSLKPEDTAVYYCNVVYFVTTSAGYDYWGQGTQVTVSS | high polyreactivity
11 | QVQLVESGGGLVQAGGSLRLSCAASGSIFRGYTMGWYRQAPGKERELVAAISWSGGSTYYADSVKGRFTISRDNAKNTVYLQMNSLKPEDTAVYDCAAGDYYHRIFLWYDYWGQGTQVTVSS | low polyreactivity
12 | QVQLVESGGGLVQAGGSLRLSCAASGSIFRGYTMGWYRQAPGKERELVATISWSGGSTYYADTVKGRFTISRDNAKNTVYLQMNSLKREDTAVYYCDARNQCRGYYWGEGTQVTVSS | high polyreactivity
13 | QVQLVESGGGLVQAGGSLRLSCAASGSIFRINDMGWYRQAPGKERELVAAITFSGGSTYADSVKGRFTISRDNAKNTVNLQMNSLKPEDTAVYYCNADGAYWTDYYLYDYWGQGTQVTVSS | low polyreactivity
14 | QVQLVESGGGLVQAGGSLRLSCAASGSIFRIYAMGWYRQAPGKERELVAAISWSGGSTYYADSVKGRFTISRDNANNTVYLQMNSRKPEDTAVYYCAARPRYKYSAYEYWGQGTQVTVSS | high polyreactivity
15 | QVQLVESGGGLVQAGGSLRLSCAASGSIFRKNAMGWYRQAPGKERELVAAITGTGRTTYADSVKGRFTISRDNAKNTVYLQMNSLKPEDTAVYYCATSYHRRYDYWGQGTQVTVSS | low polyreactivity
16 | QVQLVESGGGLVQAGGSLRLSCAASGSIFRKYPMGWYRQAPGKDTELVAAISKRGGSTYYADSVKGRFTISRDNAKNTVYLQMNSLKPEDTAVYYFNALRRYVSVRPTKSDYWGQGTQVTVSS | high polyreactivity
17 | QVQLVESGGGLVQAGGSLRLSCAASGSIFRKYTMGWYKQAPGKERELVAAISGTAGRTYYADSVKGRFTISRDNAKNTVYLKMNSLKPEDTAVYYCAALRFGGYGYNYWGQGTQVTVSS | high polyreactivity
18 | QVQLVESGGGLVQAGGSLRLSCAASGSIFRKYVMGWYRQAPGKERELVAVISSGTGTYYADSVKGRFTISRDNAKYTVYLQMNSLKPEDTAVYYCSSKYFGKWYKYYYWGQGTQVTVSS | high polyreactivity
19 | QVQLVESGGGLVQAGGSLRLSCAASGSIFRLYAMGWYRQAPGKERELVAAISWTVGRTYYADSVKGRFTISRDNAKNTVYVQMNSLKPEDTAVYYCAAEKRILANWRRFDYWGQGTQVTVSS | low polyreactivity
20 | QVQLVESGGGLVQAGGSLRLSCAASGSIFRLYVMGWYRQAPGKERELVATITRSGGNTYYADSVKGRFTISRDNAKNTVYLQMNSLKPEDTAVYYCAAQSAKSGFYPYNRYDYWGQGTQVTVSS | low polyreactivity
21 | QVQLVESGGGLVQAGGSLRLSCAASGSIFRNYAMGWYRQAPGKERELVAAISRTTRTYYADSVKGRFTISRDNAKNTVYLQMNSLKPEDTAVYYCAADYVYAGFWLYYWGQGTQVTVSS | high polyreactivity
22 | QVQLVESGGGLVQAGGSLRLSCAASGSIFRNYAMGWYRQAPGKERELVARISYSGGRTHYADSVKGRFTISRDNAKNTVYFQMNSLNPEDTAVYYCAAPFHFTHFQGNYYWGQGTQVTVSS | low polyreactivity

Row | Sequence | polyreactivity (PSR sort gate)
23 | QVQLVESGGGLVQAGGSLRLSCAASGSIFRPNAMGWYRQAPGKEREFVASISGRVGSTYYADSVKGRFTISRDNAKNTVYLQMYSLKPEDTAVYYCAADSRGGYKRNYWGQGTQVTVSS | high polyreactivity
24 | QVQLVESGGGLVQAGGSLRLSCAASGSIFRPNAMGWYRQAPGKERELVAAITFRGSRTYYADSVKGRFTISRDNAKNPVYLQMNSMKPEDTAVYYCNRLAGQDQEFEYWGQGTQVTVSS | high polyreactivity
25 | QVQLVESGGGLVQAGGSLRLSCAASGSIFRPNAMGWYRQPPGKERELVALITRGGSTNYADSVKGRFTISRDNAKNTVYLQMNSLKPEDTAVYYCAVDLWYPPVWVRVSEFDYWGQGTQVTVSS | low polyreactivity
26 | QVQLVESGGGLVQAGGSLRLSCAASGSIFRPYAMGWYRQAPGKEREFVASISWRGGSTYADSVKGRFTISRDNAKNTVYLQMNSLKPEDTAVYYCAAKFWRYRYYEYDYWGQGTQVTVSS | high polyreactivity
27 | QVQLVESGGGLVQAGGSLRLSCAASGSIFRPYAMGWYRQAPGKERELVAAIRGGGTYYADSVKGRFTISRDNAKNTVYLQMNSLKPEDTAVYYCAQYRYSYYYWGQGTQVTVSS | high polyreactivity
28 | QVQLVESGGGLVQAGGSLRLSCAASGSIFRPYAMGWYRQAPGKERELVAAISDSGGSTYYADSVKGRFTISRDNAKNTVYLQMNSLKPEDTAVYYCNAYSVWYYLASVLEVDYWGQGTQVTVSS | low polyreactivity
29 | QVQLVESGGGLVQAGGSLRLSCAASGSIFRQYAMGWYRQAPGKERELVAAINYSGGNTYYADSVKGRFTISRDNAKNTVYLQMNSLKPEDTAVYYCAADSVRHYWWAYYYWGQGTQVTVSS | low polyreactivity
30 | QVQLVESGGGLVQAGGSLRLSCAASGSIFRQYAMGWYRQAPGKERELVAAISRGGITYYADSVKGRFTISRDNAKNTVYLQMNSLKPEDTAVYYCAARYGRGERGGFYWGQGTQVTVSS | high polyreactivity
31 | QVQLVESGGGLVQAGGSLRLSCAASGSIFRQYAMGWYRQAPGKERELVATISRSGGSTYYADSVKGRFTISRDNAKNTVYLQMNSLKPEDTAVYYCAASRYKKSYREWWVGSWGQGTQVTVSS | high polyreactivity
32 | QVQLVESGGGLVQAGGSLRLSCAASGSIFRRNAMGWYRQAPGKEREFVAAITWIGGSTYYADSVKGRFTISRDNAKNTVYLQMNSLKPEDTAVYYCAAKYRTYPSNYYYWGQGTQVTVSS | high polyreactivity
33 | QVQLVESGGGLVQAGGSLRLSCAASGSIFRRYAMGWYRKAPGKEREMVAGISRTGSRTYYADSVKGRFTISRDNAKNTVYLQMNSLKPEDTAVYYCAALGPGRSGFFRYDYWGQGTQVTVSS | high polyreactivity
34 | QVQLVESGGGLVQAGGSLRLSCAASGSIFRRYAMGWYRQAPGKERELVAGITRGGSTYYADSVKGRFTISRDNAKNTVYLQMNSLKPEDTAVYYCNAVRRGLPVVGAYDYWGQGTQVTVSS | high polyreactivity
35 | QVQLVESGGGLVQAGGSLRLSCAASGSIFRRYAMGWYRQAPGKERELVAGITRGGSTYYADSVKGRFTISRDNAKNTVYLQMNSLKPEDTAVYYCNRAARYGEYDYWGQGTQVTVSS | high polyreactivity
36 | QVQLVESGGGLVQAGGSLRLSCAASGSIFRRYAMGWYRQAPGKERELVATITSTDSTNYADSVKGRFTISRDNAKNTVYLQMNSLKPEDTAVYYCAKRPYHYRRNSEYYYWGQGTQVTVSS | low polyreactivity
37 | QVQLVESGGGLVQAGGSLRLSCAASGSIFRRYDMGWYRQAPGKERELVAAISSSGGSTYYADSVKGRFTISRDNAKNTVYLHMKSLKPEDTAVYYCAADIYDYDRSEYTEYDYWGQGTQVTVSS | low polyreactivity
38 | QVQLVESGGGLVQAGGSLRLSCAASGSIFRRYTMGWYRPAPGKERELVAAISRVGNTNYADSVKGRFTISRDNAKNTVYLPMNSLKPEDTAVYYCAARAIGYRYTPGLNYWGQGTQLTVSS | high polyreactivity
39 | QVQLVESGGGLVQAGGSLRLSCAASGSIFRSDPMGWYRQAPGKEREFVASITYRGGRTYYADSVKGRFTISRDNAKNTVSLQLNSLKPEDSAVYYCAARTRAGAWTSKYHDYWGQGTQVTVSS | high polyreactivity
40 | QVQLVESGGGLVQAGGSLRLSCAASGSIFRSNALGWYRQAPGKERELVAAISWSGGRTYYADSVKGRFTISRDNAKNTVSLQMTSLKPEDTAVYYCAVGFRTLHGDYGYWGQGTQVTVSS | high polyreactivity
41 | QVQLVESGGGLVQAGGSLRLSCAASGSIFRSNAMGWYRQAPGKERELVAAISRSGGRTYYADSVKGRFTISRDNAKNTVYLLMNSLKPEDTAVYYCAAQVVRSLKYEYWGQGTQVTVSS | high polyreactivity
42 | QVQLVESGGGLVQAGGSLRLSCAASGSIFRSNAMGWYRQAPGKERELVAAISWRGGRTYYADSVKGRFTISRDNAKNSVYLLMNSLKPEDTAVYYCATEVEPYAYGYWGQGTQVTVSS | high polyreactivity
43 | QVQLVESGGGLVQAGGSLRLSCAASGSIFRSNAMGWYRQAPGQERELVAAISRSGGRTYYADSVKGRFTISRDNAKNTVYLQMNSLKPEDTAVYYCAAQVVRSLKYEYWGQGTQVTVSS | high polyreactivity
